Measured values reported in the supplement of paper PMC7877785.
± gives the uncertainty stated by the source.

Experiment: self-splicing fitness, log relative to wild type (ln ratio); higher = more splicing; Tetrahymena group I intron in knt gene, E. coli kanamycin selection, DiMSum; sequences stand for … in CUCUCU…GGAGGGAAAAGUUAUCAGGCAUGCACCUGGUAGCUAGUCUUUAAACCAAUAGAUUGCAUCGGUUUAAAAGGCAAGACCGUCAAAUUGCGGGAAAGGGGUCAACAGCCGUUCAGUACCAAGUCUCAGGGGAAACUUUGAGAUGGCCUUGCAAAGGGUAUGGUAAUAAGCUGACGGACAUGGUCCUAACCACGCAGCCAAGUCCUAAGUCAACAGAUCUUCUGUUGAUAUGGAUGCAGUUCACAGACUAAAUGUCGGUCGGGGAAGAUGUAUUCUUCUCAUAAGAUAUAGUCGGACCUCUCCUUAAUGGGAGCUAGCGGAUGAAGUGAUGCAACACUGGAGCCGCUGGGAACUAAUUUGUAUGCGAAAGUAUAUUGAUUAGUUUUGGAGUACUCGUGGUCG
Method in brief: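 DiMSum derived fitness as the error-weighted combination of fold changes across replicates, kanamycin versus no kanamycin, normalised to wild type. E. coli BL21(DE3) held the library, which randomised all eight P1ex-region intron nucleotides within the knt kanamycin-resistance gene on pET-22b(+). Six replicate transformations grew overnight at 37°C or 30°C on LB agar with or without 25 μg/mL kanamycin, also containing 100 μg/mL carbenicillin, 50 μM IPTG and 0.2% rhamnose, and pooled colonies were amplicon-sequenced on an Illumina HiSeq 2500.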

Row | Sequence | self-splicing fitness (ln) (30 °C) | self-splicing fitness (ln) (37 °C)
1 | CGUCAGCAAUAUUACGUAAG | 0.214 ± 0.054 | 0.2 ± 0.07
2 | CUUAAGCAAUAUUACGCUGG | -4.54 ± 0.32 | -2.64 ± 0.18
3 | GUCCAGCAAUAUUACGGAUU | -2.84 ± 0.09 | -0.789 ± 0.091
4 | CAAAAGCAAUAUUACGAGGU | -3.46 ± 0.15 | -2.91 ± 0.21
5 | CCUGAGCAAUAUUACGGUCC | -1.71 ± 0.36 | -1.22 ± 0.43
6 | GCGCAGCAAUAUUACGCGUG | -1.93 ± 0.11 | -1.36 ± 0.13
7 | CAUCAGCAAUAUUACGAAUG | -3.18 ± 0.16 | -2.05 ± 0.14
8 | ACGUAGCAAUAUUACGCAGU | -2.58 ± 0.2 | -2.54 ± 0.24
9 | AUGUAGCAAUAUUACGGAGC | -4.16 ± 0.16 | -3.02 ± 0.15
10 | GCACAGCAAUAUUACGGUGC | -3.09 ± 0.2 | -2.61 ± 0.23
11 | AAGGAGCAAUAUUACGCAUU | -2.8 ± 0.15 | -1.64 ± 0.16
12 | GGGAAGCAAUAUUACGAGGA | -3.34 ± 0.48 | -2.24 ± 0.29
13 | GUCCAGCAAUAUUACGAAUC | 0.437 ± 0.16 | 0.114 ± 0.2
14 | UAUAAGCAAUAUUACGUUUG | -1.84 ± 0.11 | -1.61 ± 0.14
15 | AGGUAGCAAUAUUACGGGGA | -3.342 ± 0.031 | -2.42 ± 0.039
16 | CAUAAGCAAUAUUACGCGCC | -3.87 ± 0.4 | -1.47 ± 0.34
17 | GUGGAGCAAUAUUACGUAUU | -3.11 ± 0.17 | -1.68 ± 0.21
18 | GAACAGCAAUAUUACGCGGU | -3.6 ± 0.19 | -2.82 ± 0.21
19 | CCUCAGCAAUAUUACGCCAG | -3.22 ± 0.16 | -0.883 ± 0.13

Row | Sequence | self-splicing fitness (ln) (30 °C) | self-splicing fitness (ln) (37 °C)
20 | UGCAAGCAAUAUUACGGGGC | -3.59 ± 0.27 | -2.56 ± 0.24
21 | GCCGAGCAAUAUUACGGAUC | -0.703 ± 0.074 | -0.376 ± 0.11
22 | CGGGAGCAAUAUUACGGUGG | -3.1 ± 0.37 | -2.43 ± 0.45
23 | CAAGAGCAAUAUUACGCGGC | -3.74 ± 0.31 | -3.52 ± 0.28
24 | UUACAGCAAUAUUACGGUCG | 0.503 ± 0.065 | 0.571 ± 0.087
25 | UGGUAGCAAUAUUACGGCGG | -0.708 ± 0.082 | -0.0108 ± 0.1
26 | UUUAAGCAAUAUUACGGUAG | -0.741 ± 0.17 | -0.971 ± 0.21
27 | GUUGAGCAAUAUUACGGCGC | -0.744 ± 0.18 | -0.21 ± 0.22
28 | AUUGAGCAAUAUUACGUUAU | -2.61 ± 0.2 | -1.86 ± 0.24
29 | GUUUAGCAAUAUUACGAACU |  | -2.69 ± 0.44
30 | CUGCAGCAAUAUUACGUUGA | -3.42 ± 0.2 | -3.21 ± 0.24
31 | CCUAAGCAAUAUUACGAUUC | -3.13 ± 0.29 | -2.6 ± 0.41
32 | ACGAAGCAAUAUUACGCAGG | -1.67 ± 0.11 | -1.44 ± 0.12
33 | CAUCAGCAAUAUUACGAAAU | -4.26 ± 0.2 | -2.66 ± 0.16
34 | CAGUAGCAAUAUUACGCCAG | -0.7 ± 0.1 | -0.109 ± 0.15
35 | GGUGAGCAAUAUUACGUCAA | -3.58 ± 0.46 | -2.78 ± 0.31
36 | CACCAGCAAUAUUACGACCA | -1.94 ± 0.13 | -0.0102 ± 0.16
37 | AGCCAGCAAUAUUACGUUGG | -3.52 ± 0.4 | -2.56 ± 0.23
